Paper PMC10221487

Experiments:
[1] = biological target: ZV54^CHO (CHO cell-derived ZV54 mAb); experiment: SPR; settings: remark: other sources report otherwise
[2] = biological target: ZV54^ΔXF (ZV54 mAb expressed in glycoengineered ΔXF N. benthamiana plants); experiment: SPR; settings: remark: other sources report otherwise

Kd [1]: 662 nM | Kd [2]: 1890 nM
B1: recombinant human FcγRIIA ectodomain, P12318 34-217 (receptor)
chain: QAAAPPKAVLKLEPPWINVLQEDSVTLTCQGARSPESDSIQWFHNGNLIPTHTQPSYRFKANNNDSGEYTCQTGQTSLSDPVHLTVLSEWLVLQTPHLEFQEGETIMLRCHSWKDKPLVKVTFFQNGKSQKFSHLDPTFSIPQANHSHSGDYHCTGNIGYTLFSSKPVTITVQVPSMGSSSPMG
modifications: not checked
